Measurements taken from publication PMC12110046.

Experiments:
[1] = biological target: eel lutropin/chorionic gonadotropin receptor, wild type (eel)
[2] = biological target: eel LH/CGR-N312Q (eel)
[3] = biological target: eel LH/CGR-N201Q (eel)
[4] = biological target: eel LH/CGR-N49Q (eel)
[5] = biological target: eel LH/CGR-N306Q (eel)
[6] = biological target: eel lutropin/chorionic gonadotropin receptor, wild type (eel); remark: listed apart in the source
[7] = biological target: eel LH/CGR-N312Q (eel); remark: listed apart in the source
[8] = biological target: eel LH/CGR-N49Q (eel); remark: listed apart in the source
[9] = biological target: eel LH/CGR-N306Q (eel); remark: listed apart in the source

recombinant eel LH (ligand)
pERK1/2 activity (HTRF), transfected HEK-293 cells, rec-eel LH 250 ng/mL for 0-30 min; peak at 5 min, fold over the basal response [1]: 3.97 fold | pERK1/2 activity (HTRF), transfected HEK-293 cells, rec-eel LH 250 ng/mL for 0-30 min; peak at 5 min, fold over the basal response of LH/CGR-wt [2]: 3.7 fold | pERK1/2 activity (HTRF), transfected HEK-293 cells, rec-eel LH 250 ng/mL for 0-30 min; peak at 5 min, fold over the basal response of LH/CGR-wt [3]: 2.6 fold | pERK1/2 activity (HTRF), transfected HEK-293 cells, rec-eel LH 250 ng/mL for 0-30 min; peak at 5 min, fold over the basal response of LH/CGR-wt [4]: 3.3 fold | pERK1/2 activity (HTRF), transfected HEK-293 cells, rec-eel LH 250 ng/mL for 0-30 min; peak at 5 min, fold over the basal response of LH/CGR-wt [5]: 3.1 fold | EC50 of the cAMP response (HTRF), transfected CHO-K1 cells, rec-eel LH for 30 min [6]: 0.19 µg/mL | EC50 of the cAMP response (HTRF), transfected CHO-K1 cells, rec-eel LH for 30 min [7]: 0.235 µg/mL | EC50 of the cAMP response (HTRF), transfected CHO-K1 cells, rec-eel LH for 30 min [8]: 0.215 µg/mL | EC50 of the cAMP response (HTRF), transfected CHO-K1 cells, rec-eel LH for 30 min [9]: 0.233 µg/mL
